Here are results for three molecules from patent publication US20250281632A1, “LGALS3BP ANTIBODY-DRUG-CONJUGATE AND ITS USE FOR THE TREATMENT OF CANCER” (MEDIAPHARMA S.R.L., priority 2018, published 2025).

In assay [1] the test system is Neuroblastoma cell lines (SHSY5Y, Kelly and hNB). The experiment in a line: MTT cell killing assay. It is filed as cell-based, human. As to conditions: 72 hours, A375m melanoma cells as positive control (FIG. 19). Here is the method:
Neuroblastoma cell lines (SHSY5Y, Kelly and hNB) and A375m melanoma cell line were plated and treated with increasing concentrations of SH-DM3 for 72 hours. The cell killing activity of the drug was evaluated by MTT assay.
For orientation: Tetrazolium assays rely on reduction of a dye to a coloured formazan, in cell work by metabolically active cells.

Assay [2] has as its target T1, Human recombinant LGALS3BP (human, UniProt Q08380 19-585).
T1 construct: also called 90K
T1 sequence (looked up): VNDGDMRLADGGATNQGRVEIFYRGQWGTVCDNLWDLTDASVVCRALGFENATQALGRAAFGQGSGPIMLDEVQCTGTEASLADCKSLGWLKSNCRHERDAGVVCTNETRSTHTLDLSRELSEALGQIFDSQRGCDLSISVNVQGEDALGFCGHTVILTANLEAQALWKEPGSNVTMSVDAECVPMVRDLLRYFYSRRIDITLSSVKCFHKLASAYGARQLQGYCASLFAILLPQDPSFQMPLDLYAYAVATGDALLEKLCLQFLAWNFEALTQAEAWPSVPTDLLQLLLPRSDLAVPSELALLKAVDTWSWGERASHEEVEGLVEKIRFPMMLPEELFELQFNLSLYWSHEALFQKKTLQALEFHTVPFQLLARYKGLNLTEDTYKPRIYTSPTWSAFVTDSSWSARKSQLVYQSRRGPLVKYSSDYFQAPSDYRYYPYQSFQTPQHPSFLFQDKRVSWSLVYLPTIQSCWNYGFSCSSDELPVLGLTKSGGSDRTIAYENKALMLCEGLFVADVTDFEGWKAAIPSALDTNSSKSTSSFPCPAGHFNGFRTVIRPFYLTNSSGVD
The experiment in a line: ELISA, plate-coated human recombinant LGALS3BP, anti-human IgG-HRP detection. On the procedure: Human recombinant LGALS3BP (2 μg/ml) was pre-coated overnight at 4° C. on 96 well-plates NUNC Maxisorp modules. […] After several washes with PBS-0, 1% Tween-20, anti-human IgG-HRP was added and incubated for 1 hour at room temperature. After washes, stabilized chromogen was added for at least 10 minutes in the dark, before stopping the reaction with the addition of 1 N H₂SO₄. The resulting color was read at 492 nm with an Elisa reader.
On the technique in general: An ELISA detects its analyte on a solid surface through an enzyme-linked reagent.

In assay [3] the target is T2, LGALS3BP at the membrane of human tumor cells (human, UniProt Q08380 19-585).
T2 construct: whole, on cells; A secreted protein that stays close to the plasma membrane; It was detected by immunofluorescence on cells; also called Gal-3BP
T2 sequence (looked up): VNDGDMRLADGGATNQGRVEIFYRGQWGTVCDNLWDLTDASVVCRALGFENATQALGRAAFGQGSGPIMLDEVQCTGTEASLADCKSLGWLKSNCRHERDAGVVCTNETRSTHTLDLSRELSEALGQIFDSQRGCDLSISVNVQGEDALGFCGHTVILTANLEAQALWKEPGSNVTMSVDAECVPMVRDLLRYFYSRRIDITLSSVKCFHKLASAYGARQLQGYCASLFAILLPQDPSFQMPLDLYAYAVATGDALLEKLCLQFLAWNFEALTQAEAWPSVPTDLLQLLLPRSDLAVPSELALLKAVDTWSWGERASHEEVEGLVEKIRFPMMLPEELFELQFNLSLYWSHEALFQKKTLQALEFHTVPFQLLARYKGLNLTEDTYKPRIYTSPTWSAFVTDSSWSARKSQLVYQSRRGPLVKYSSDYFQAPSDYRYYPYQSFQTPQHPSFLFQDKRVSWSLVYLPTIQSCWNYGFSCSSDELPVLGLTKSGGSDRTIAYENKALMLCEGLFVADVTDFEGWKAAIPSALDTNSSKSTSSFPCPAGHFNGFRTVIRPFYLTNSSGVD
The assay is described as follows: confocal immunofluorescence on MDA-MB-231, A375 and FADU cells, anti-human IgG-Alexa Fluor 488. Here is the method: Human tumor cells were grown on glass coverslips for 24 hours. […] At the end of incubation, cells were fixed in 4% paraformaldehyde for 15 minutes at room temperature, permeabilized with 0.25% Triton X-100 for 5 minutes, and blocked with 0.1% BSA for 1 hour at room temperature. Coverslips were then incubated with anti-human IgG-Alexa Fluor 488 conjugated. DRAQ5 was used to visualize nuclei. Images were acquired with a Zeiss LSM 510 meta-confocal microscopy using 488- and 633-nm lasers. [0142] […] [0143] A-B; MDA-MB-231 breast cancer; C-D, A375 melanoma; E-F, FADU, H&N cancer; G-H, HBF, normal bronchial fibroblasts.

In the case of `COc1cc2cc(c1Cl)N(C)C(=O)C[C@H](OC(=O)C(C)N(C)C(=O)CCC(C)S)[C@]1(C)O[C@H]1[C@H](C)C1C[C@@](O)(NC(=O)O1)[C@H](OC)/C=C/C=C(\C)C2` (some centres unmarked) [SH DM3], the cell killing activity result in assay [1] is reported as “potent cell killing activity”.

B1: Antibody 1959-sss (C220S-C226S-C229S) (antibody, V domains shown)
VH: QVQLQESGPGLVKPSETLSLTCAVSGYSISSGYYWTWIRQPPGKGLEWIGYITYDGKNNYSPSLKNRVTISVDTSKNQFSLKLSSVTAADTAVYYCAREGSSVITTGFTFWGQGTLVTVSS
VL: DIQMTQSPSTLSASVGDRVTITCSASSRVSYMYWYQQKPGKAPKLLIYLTSNLASGVPARFSGSGSGTEFTLTISSLQPDDFATYYCQQWTSHPPTFGQGTKVEVKR
notes: Humanized SP-2 on a human IgG framework, with the hinge cysteines 220, 226 and 229 changed to serine, so no interchain disulfides; Made in CHO cells
As for B1, the binding result in assay [2] and in assay [3] was “binds” in each case.

B2: 1959-sss-DM3 (antibody, V domains shown)
VH: QVQLQESGPGLVKPSETLSLTCAVSGYSISSGYYWTWIRQPPGKGLEWIGYITYDGKNNYSPSLKNRVTISVDTSKNQFSLKLSSVTAADTAVYYCAREGSSVITTGFTFWGQGTLVTVSS
VL: DIQMTQSPSTLSASVGDRVTITCSASSRVSYMYWYQQKPGKAPKLLIYLTSNLASGVPARFSGSGSGTEFTLTISSLQPDDFATYYCQQWTSHPPTFGQGTKVEVKR
modifications: maytansinoid DM3 joined by a disulfide bond to a cysteine of the light chain (DAR 2; light chain mass 24053 Da against 23261 Da reduced); residue number not given
notes: also called Ab1959-SSS-DM3
Take B2: the binding result in assay [2] and in assay [3] was “binds” in each case.
